# Data from publication PMC12236258.
# Biological target: SpyCatcher003-A49C labelled with Alexa 555 maleimide
# Experiment: FRET or BRET; inline mixing cell, SpyTag003-sfGFP (donor) and SpyCatcher003-AF555 (acceptor) each at 10 uM, equimolar, delays 0.02-10 s, emission at 515 nm, double exponential fit; observed rates at one concentration
substance,measurement,value
SpyTag003-sfGFP,"fast rate of the double exponential FRET decay (observed, 10 uM each)",143 s⁻¹
same,percent reduction of the donor fluorescence by FRET (20 ms to 10 s after mixing),> 50%
same,"slow rate of the double exponential FRET decay (observed, 10 uM each)",7 s⁻¹
